B1: TRIM9 (parent)
chain: PRNSCITCPQCHRSLILDDRGLRG
B2: ZNF232 (parent)
chain: GKAYGWCSELIRHRRVHARKEPSH

Variants of: B1
Test: protein stability index of a GFP-peptide fusion (GPS, HEK-293T) (PSI 1-6); higher = more stable
Conditions: c terminus: a fixed tail appended
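Also: lentivirally expressed fusions sorted by FACS into six bins by GFP to DsRed ratio, PSI derived from sequencing read proportions per bin multiplied by bin number.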

Protein stability index: each site, then its substitutions
G21: W 2.06, I 1.47, T 1.57, V 1.78, S 1.71, C 2.52, E 2.93, L 2.09, D 2.07, K 2.52, P 2.27, H 2.11, A 1.93, Q 2.01, M 2.8, Y 2.24, N 2.17, F 1.88
R23: V 1.93, S 2.1, P 2.42, K 2.2, H 2.05, E 3.21, L 2.48, D 2.96, C 2.6, F 2.75, G 2.48, Q 2.41, T 3, I 2.08, N 2.56, A 2.5, Y 1.63, M 1.67, W 1.25
G24: H 3.02, L 1.81, C 2.35, M 2.17, W 1.76, N 1.86, S 2.35, E 2.6, F 2.34, P 2.03, R 1.22, T 2.23, I 2.03, D 2.08, Y 1.84, V 2.32, Q 2.28, A 2.13, K 1.71
L22: W 2.54, Y 2.54, R 2.84, D 3.81, N 2.34, S 2.62, T 3.33, M 2.69, V 2.55, G 2.3, Q 3.69, F 1.91, I 2.36, K 2.46, C 2.32, H 2.49, E 2.21, P 3.51
R20: P 2.6, A 1.98, K 1.98, W 1.44, C 2.39, T 3.07, N 2.05, V 1.82, I 1.85, L 1.93, M 2.21, D 2.53, Y 2.35, G 2.19, Q 2.04, E 2.7, F 1.69, H 1.62
D19: R 1.84, S 2.11, P 1.81, Q 2.77, W 1.52, Y 1.7, V 1.4, N 1.93, T 2.42

Variants of: B2
Test: as above
Conditions: c terminus: a fixed tail appended

Protein stability index: each site, then its substitutions
Y4: A 3.54, I 3.06, G 3.77, E 3.62, F 2.84, D 4.04, C 2.2, H 3.63, K 3.62
K2: R 2.79, N 2.62, T 3.12, E 2.82, M 2.55, W 1.85, C 2.41, A 3.3, L 2.61, P 3.44, D 3.2, S 2.84, F 2.62, G 3.54, I 2.72, Y 3.5, Q 3.26, H 3.01, V 2.79
G1: C 2.73, T 3.35, R 2.87, H 2.75, K 2.75, W 1.97, Y 2.37, E 3.39, L 2.85, M 2.55, V 2.45, F 2.79, D 3.43, P 3.44, I 2.72, Q 3.28, A 2.89, N 3.14, S 3.08
A3: I 2.35, Y 2.53, H 2.69, T 3.02, R 2.92, C 2.89, P 2.81, Q 2.95, N 3.12, K 3.1, G 3, F 2.73, L 2.29, S 3.46, E 3.04, D 3.39, M 2.77, V 2.97, W 2.48

— the supplement of paper PMC10567573
